Laboratory results as given in patent US20210238276A1 (INTEGRAL MOLECULAR, published 2021).
Numbering of substitutions follows the chain as printed. Read-outs that look alike come from different tables or passages of the source.

B1: AB108 (Fc fusion)
scFv: ALTQPSSVSANLGGTVKITCSGSSGSYGWYQQKAPGSAPVTLIYRNDKRPSDIPSRFSGSESGSTGTLTITGVQAEDEAVYFCGGYDSSAGYAAFGAGTTLTVLGQSSRSSGGGGSSGGGGSAVTLDESGGGLQTPGGALSLVCKASGFTFSSHGMGWVRQAPGKGLEWVGSISTGRYTFYAPAVKGRATISRDNGQSTLRLQLNNLRAEDTGTYYCTKCAGLNGCGGGEIDAWGHGTEVIVSS
notes: Bivalent scFv-Fc; also called MAb AB108; not shown: Fc fragment of human IgG1, cloned in frame with the scFv
B2: AB111 (Fc fusion)
scFv: ALTQPSSVSANPGETVKITCSGSGSWYGWFQQKSPGSAPVTVIYSNDKRPSDIPSRFSGSKSGSTSTLTITGVQVEDEAVYYCGNWDIFGAGTTLTVLGQSSRSSGGGGSSGGGGSAVTLDESGGGLQTPGGALSLVCKASGFTFSSHGMGWVRQAPGKGLEWVASISTGRYTFYAPAVKGRATISRDNGQSTVRLQLNNLRAEDTATYYCTKCAGLNGCGGGEIDAWGHGTEVIVSS
notes: Bivalent scFv-Fc; also called MAb AB111; not shown: Fc fragment of human IgG1, cloned in frame with the scFv
B3: AB102 (Fc fusion)
scFv: ALTQPSSVSANLGGTVKITCSGGGSYGYGWYQQKSPGSAPVTVIYSNDQRPSDIPSRFSGSKSGSTATLTITGVRAEDEAIYYCGSTDSDYVGIFGAGTTLTVLGQSSRSSGGGGSSGGGGSAVTLDESGGGLQTPGGTLSLVCKASGFDFSSYATIWVRQAPGKGLEWVAGISGTGTGSSTGYAPAVKGRATISRDNGQSTVRLQLNNLRAEDTGSYFCAKSTGYGDSWIYPDSIDAWGHGTEVIVSS
notes: also called MAb AB102; not shown: Fc fragment of human IgG1, cloned in frame with the scFv

Columns and labels:
[1] = target: T1, human GLUT4 (hsGLUT4), wild type (UniProt P14672 1-509); assay: BLI; avid
T1 chain: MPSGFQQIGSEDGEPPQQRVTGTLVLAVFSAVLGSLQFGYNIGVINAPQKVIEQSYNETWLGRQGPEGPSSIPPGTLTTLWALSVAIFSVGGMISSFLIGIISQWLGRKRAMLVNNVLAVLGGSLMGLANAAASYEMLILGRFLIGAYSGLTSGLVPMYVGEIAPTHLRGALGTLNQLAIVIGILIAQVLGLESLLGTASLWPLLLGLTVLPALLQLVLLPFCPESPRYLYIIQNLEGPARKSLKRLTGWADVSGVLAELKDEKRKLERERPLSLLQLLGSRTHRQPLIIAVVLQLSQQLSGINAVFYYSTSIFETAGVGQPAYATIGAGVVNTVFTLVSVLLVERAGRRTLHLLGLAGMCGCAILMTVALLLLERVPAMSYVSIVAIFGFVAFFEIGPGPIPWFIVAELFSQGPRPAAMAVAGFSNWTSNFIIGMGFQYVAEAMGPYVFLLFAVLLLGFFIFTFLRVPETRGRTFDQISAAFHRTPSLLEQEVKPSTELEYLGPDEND

[2] = target: T1, human GLUT4 (hsGLUT4), wild type; assay: BLI; avid
[3] = target: T2, mouse GLUT4 (mmGLUT4) (mouse, UniProt P14142 1-509); assay: immunofluorescence, permeabilized 3T3-L1 adipocytes (data not shown)
T2 construct: whole, on cells; Also tested as endogenous protein in murine 3T3-L1 adipocytes; also called endogenous GLUT4 of 3T3-L1 adipocytes
T2 sequence (looked up): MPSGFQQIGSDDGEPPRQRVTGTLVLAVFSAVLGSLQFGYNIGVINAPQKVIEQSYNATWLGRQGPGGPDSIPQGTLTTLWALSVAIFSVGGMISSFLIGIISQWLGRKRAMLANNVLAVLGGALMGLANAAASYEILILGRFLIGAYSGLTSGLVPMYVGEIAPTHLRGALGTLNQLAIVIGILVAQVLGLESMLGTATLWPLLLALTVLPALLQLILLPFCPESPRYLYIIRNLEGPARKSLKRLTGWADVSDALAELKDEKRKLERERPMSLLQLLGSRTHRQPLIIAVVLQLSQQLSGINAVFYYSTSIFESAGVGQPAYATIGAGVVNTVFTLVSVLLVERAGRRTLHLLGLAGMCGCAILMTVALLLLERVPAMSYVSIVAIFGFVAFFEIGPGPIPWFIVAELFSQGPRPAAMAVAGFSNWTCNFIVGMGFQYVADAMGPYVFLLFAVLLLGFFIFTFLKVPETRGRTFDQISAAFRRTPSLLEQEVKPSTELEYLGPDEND
Experimental: Adipocytes, between 7-8 days post-differentiation, were serum-starved for 3 hours in Dulbecco's modified Eagle's medium with […] bicarbonate and 20 mM HEPES pH 7.4, prior to stimulation for 20 minutes at 37° C. with or without 170 nM human insulin (Sigma Aldrich) prepared in the same media with 2% BSA. Adipocytes were washed twice with ice-cold PBS with calcium and magnesium (PBS+/+) and remained on ice for all subsequent steps.
Adipocytes were blocked with 10% Normal Goat Serum (NGS) in PBS+/+ for 30 minutes on ice before adding test antibodies at 10 ug/ml in 10% NGS. Primary antibodies were incubated for 2 hours, then washed 2× with PBS+/+. Cells were subsequently fixed for 5 minutes in 4% paraformaldehyde (PFA), washed 2× with PBS+/+, and then stained with secondary antibody (AF488 conjugated Goat anti-human, Jackson Immunoresearch) diluted 1:200 in 10% NGS. Secondary antibody was incubated for 1 hour, after washing 3× with PBS+/+. For intracellular staining, cells were fixed prior to the blocking step and permeabilized with 10% NGS containing 0.2% Saponin. The 1F8 antibody was used at 1 μg/ml, and detected using AF647-conjugated goat anti-mouse secondary antibody diluted 1:400 (Jackson Immunoresearch). Alexafluor 488 was visualized using the B-2EC cube with an exposure time of 1.5 seconds. Alexafluor 647 was visualized using the Cy5 cube with an exposure time of 2 seconds.

[4] = target: T3, hsGLUT4 Y159A (human, UniProt P14672 1-509); assay: flow cytometry, alanine-scan library in HEK-293T, with cytochalasin B
T3 sequence: T1 chain with Y159A

Binder | Kd [1] [nM] | Kd [2] [nM] | binding result [3] | % of binding to wild type GLUT4 [4] [%]
B1 | 1.8 | 1.8 |  | 
B2 | 0.56 | 0.56 | binds | 
B3 |  |  | binds | 11
